Experimental data as given in US20030134779A1, “Method and composition for treatment and/or prevention of antibiotic-resistant microorganism infections” (priority 2002, published 2003).

System: S. aureus strains
Assay: MIC / FIC determination, summary over strains
Format: cell-based, Staphylococcus aureus
Conditions: strains of Table 1
Source text: Staphylococcus aureus strains ATCC 25923 and 6538 and Escherichia coli ATCC 25922 were obtained from the American Type Culture Collection. Eight bovine mastitis clinical isolates of S. aureus (SHY97-3906, -3923, -4085 -4242, -4320 and -4343, RFT-1 and RFT-5) and one isolate of E. coli SHY97-3923-2 and one isolate of Kiebsiella pneumoniae SHY99-723-1 were kindly provided by the Laboratoire Provincial de Pathologie Animale of St-Hyacinthe and of Rock-Forest (Quebec, Canada), respectively. Nine β-lactam antibiotics resistant S. aureus strains (PC-1, NCTC 9789, 2076, 22260, ST79/741, 3804, RN9, FAR8, and FAR10) were obtained from Vanderbilt University School of Medicine (Nashville, Tenn., USA). […]
The MICs were determined by both macrodilution (1 ml/tube) and microdilution (100 μl/well) in sterile 96 well microtiter plates (International Nunc, Napierville, Ill.) techniques in three separate experiments according to the National Committee for Clinical Laboratory Standards (1992 and 1999) in three separate experiments. […] Effect of LF combination with antibiotic on MICs were determined by adding 0.5 mg or 1 mg/ml of LF to each antibiotic dilution. […] Effect of LF or LFC combination with antibiotic on MIC was also determined by checkerboard method using 96 well microtiter plates. […] The fractional inhibitory concentration (FIC) was calculated as described by Eliopoulos and Moellering (1991). […]

B1: LF: bovine lactoferrin, 80-kDa iron-binding glycoprotein found in milk (protein, UniProt P24627 20-708, looked up)
Lactotransferrin: APRKNVRWCTISQPEWFKCRRWQWRMKKLGAPSITCVRRAFALECIRAIAEKKADAVTLDGGMVFEAGRDPYKLRPVAAEIYGTKESPQTHYYAVAVVKKGSNFQLDQLQGRKSCHTGLGRSAGWIIPMGILRPYLSWTESLEPLQGAVAKFFSASCVPCIDRQAYPNLCQLCKGEGENQCACSSREPYFGYSGAFKCLQDGAGDVAFVKETTVFENLPEKADRDQYELLCLNNSRAPVDAFKECHLAQVPSHAVVARSVDGKEDLIWKLLSKAQEKFGKNKSRSFQLFGSPPGQRDLLFKDSALGFLRIPSKVDSALYLGSRYLTTLKNLRETAEEVKARYTRVVWCAVGPEEQKKCQQWSQQSGQNVTCATASTTDDCIVLVLKGEADALNLDGGYIYTAGKCGLVPVLAENRKSSKHSSLDCVLRPTEGYLAVAVVKKANEGLTWNSLKDKKSCHTAVDRTAGWNIPMGLIVNQTGSCAFDEFFSQSCAPGADPKSRLCALCAGDDQGLDKCVPNSKEKYYGYTGAFRCLAEDVGDVAFVKNDTVWENTNGESTADWAKNLNREDFRLLCLDGTRKPVTEAQSCHLAVAPNHAVVSRSDRAAHVKQVLLHQQALFGKNGKNCPDKFCLFKSETKNLLFNDNTECLAKLGGRPTYEEYLGTEYVTAIANLKKCSTSPLLEACAFLTR
Q: Which “MICs of lactoferrin alone” value does the source give for B1 here?
A: greater than 25 mg/ml
